Results: patent publication US20230001007A1, “Glycan-Interacting Compounds and Methods of Use” (Seagen Inc., priority 2017, published 2023)

Legend:
[1] = system: array glycans (AcSTn, GcSTn, Tn and others); test: Glycan array analysis; format: binding; parameters: key: Group 1: capable of binding AcSTn and GcSTn, if they bind to glycans 5, 6, 23 and 24; Group 2: capable of binding STn as well as some related structures that include an O-linkage to serine or threonine, if they bind to glycans 5, 6, 23, 24, 27 and 31; Group 3: capable of binding STn, but may also bind a broader set of related structures) if they bind glycans 5, 6, 23, 24, 17, 3, 19, 37, 27 and 31; Group 4: capable of binding to both AcSTn and GcSTn as well as the un-sialylated Tn antigen (therefore having broader specificity) if they bind to glycans 5, 6, 23, 24 and 47
Description: Optimized glycan arrays are utilized to test antibody affinity and specificity for multiple glycans in a single experiment. Glycan arrays include 71 chemically synthesized and well-defined glycans, most of which are Neu5Ac and Neu5Gc glycan pairs.
300 ml of epoxy blocking buffer is prepared by combining 15 ml of 2 M Tris buffer (pH 8) with 0.9 ml of 16.6 M ethanolamine and 284.1 ml of distilled water. The solution is brought to a final pH of 9.0 with HCl. The solution is filtered using a […] nitrocellulose membrane. The epoxy buffer solution as well as 1 L of distilled water are pre-warmed to 50° C. Glass slides are arranged in a slide holder and quickly submerged in a staining tub with the warmed epoxy blocking buffer. Slides are incubated in the epoxy blocking buffer for 1 hour at 50° C. with periodic shaking to deactivate epoxy binding sites. Next, slides are rinsed and blocked with PBS with 1% OVA at 25° C. for one hour. Serum samples with polyclonal antibodies (1:1000) or purified monoclonal antibodies (1 ug/mL), are diluted in PBS with 1% OVA and added to the glycan array for one hour at 25° C. After extensive washing, binding of antibodies are detected by incubating glycan microarray slides with Cy3-conjugated anti-mouse IgG (Jackson Immunoresearch, West Grove, Pa.) for one hour. Slides are then washed extensively, dried and scanned with a Genepix 4000B scanner (Laser at 100%; gain at 350; 10 μm pixels). Raw data from scanned images are extracted using the Genepix software and analysis of raw data is carried out.
Based on array analysis, antibodies are classified according to array glycan binding profile. Antibodies are classified as “Group 1” antibodies, capable of binding AcSTn and GcSTn, if they bind to glycans 5, 6, 23 and 24. Such antibodies are referred to as Pan-STn antibodies due to their ability to associate with a wider range of STn structures and the portion of STn indicated by the largest ellipse in FIG. 1A. […]

[2] = system: MDA-MB-231-STn cells; test: Flow cytometry-based binding analysis; conditions: 0 to 300 nM, read-out: MDA-MB-231-STn cell binding [EC50 (nM)]
Description: Humanized IgG1 antibodies, prepared as described above, were subjected to characterization analysis including flow cytometry-based binding analysis with MDA-MB-231-STn cells; binding analysis by BSM ELISA; and glycan array analysis.
In flow cytometry-based binding studies, antibodies were screened over a concentration range of 0 to 300 nM, comparing binding to MDA-MB-231 cells with or without transfection-induced STn expression. Binding was determined using an anti-human APC conjugated secondary antibody and only live cells were considered (based on propidium iodide negative gating). 5,000 events were collected per sample on average. Data were analyzed using FlowJo software (Asland, Oreg.) and resulting APC means and % APC were obtained. […] Human isotype IgG1 antibody was used as an isotype negative control. Epidermal growth factor receptor (LA22, EMD Millipore, Billerica, Mass.) was used as a positive control.

[3] = system: MDA-MB-231 cells transfected for enhanced expression of STn (STn positive cells); test: ADC cytotoxicity assay ([…]-GLO); format: cell-based; conditions: MMAE-conjugated ADC versions; 72 hours; kill of STn positive cells
Description: MMAE-conjugated ADC versions of hSIA101, hSIA102, and hSIA103 were assessed in an ADC cytotoxicity assay using MDA-MB-231 cells (parental or transfected for enhanced expression of STn). Parental cells were grown in Eagle's Minimum Essential Medium (EMEM) supplemented with 10% FBS, lx Pen/Strep and 45 μg/mL gentamycin. STn positive cells were grown in the same media except with the addition of 1 mg/mL G418 for antibiotic selection. Cells were seeded separately (4,000 cells/well for parental cells or 2,000/well for STn positive cells) in 96-well plates using proper media described above. Cells were grown overnight. After 16-20 hours, cells were treated with varying concentrations of test antibodies in triplicate (50 nM to 0.012 nM) for 72 hours. Then, cells were analyzed using an ADC […]-GLO® luminescent cell viability assay kit (Promega, Madison, Wis.) to determine the amount of ATP present, an indicator of metabolically active cells. The assay uses a single reagent that is added directly to the cultured cells in serum-supplemented medium. The reagent lyses the cells and generates a luminescent signal proportional to the amount of ATP present. Luminescent signals were analyzed and used to calculate the half-maximal inhibitory concentration (IC50) values for each antibody used based on the concentration required to kill STn positive cells at half-maximal levels (see Table 9).

[4] = target: bovine submaxillary mucin (BSM); test: BSM ELISA, periodate-sensitive STn binding
Description: For BSM ELISA analysis, antibodies were screened over a concentration range of 0 to 100 nM on bovine submaxillary mucin (BSM) coated wells. A subset of wells were treated with mild periodate solution before antibody introduction to remove the side chain on terminal sialic acid residues (destroying the STn antigen). Optical densities of periodate and non-periodate-treated wells were determined and log transformed then fit to a nonlinear regression model to obtain a dose response curve. Optical density values obtained from periodate-treated wells were subtracted from non-periodate treated wells to obtain a periodate-sensitive STn binding curve and corresponding EC50 values.

[5] = system: SW403; test: STn expression on CRC line by flow cytometry using anti-STn antibodies; format: cell-based; conditions: detected using mSIA103
Description: (§1) Mouse antibodies were characterized for in vitro and in vivo efficacy in breast, colon and ovarian cancer models. The antibodies were used to identify CRC cell lines that express STn on the surface. Five CRC lines were incubated in vitro and grown to confluency. % STn expression was determined by flow cytometry using anti-STn antibodies. Approximately 30-70% of cultured SW403, COL0205 and LS174T cells naturally expressed STn on the surface (as detected using mSIA103), while HT29 and RKO had very little to no detectable STn (as detected using hSIA101) on their cell surface (see Table 6).

[6] = system: COLO205; test: as above; format: cell-based; conditions: detected using mSIA103
Description: as §1

[7] = system: LS174T; test: as above; format: cell-based; conditions: detected using mSIA103
Description: as §1

[8] = system: CRC Tissue Microarray (TMA) cores; test: CRC Tissue Microarray staining for STn with and without neuraminidase; format: binding
Text: Further, a CRC Tissue Microarray (TMA) (NBP2-30214; Novus Bio, Littleton, Colo.) was stained for STn expression. The array consists of 59 cores with and without a neuraminidase (sialidase) enzyme treatment. Neuraminidase specifically cleaves terminal sialic acids and destroys STn antigen present on the tissue.

Molecule	Array glycan binding profile [1]	EC50 [2] [nM]	IC50 [3] [nM]	EC50 ([4]; periodate-sensitive STn binding curve, 0 to 100 nM) [nM]	periodate sensitivity of binding in ELISA assays [4]	% STn expression [5] [%]	% STn expression [6] [%]	% STn expression [7] [%]	staining on normal colon ([8]; 8 cores)	staining after neuraminidase treatment ([8]; 250 mU/mL neuraminidase, all 45 positive cores)	neoplastic cores with some level of positive membrane staining ([8]; out of the 51 neoplastic cores on the TMA)
hSIA103 (antibody, V domains shown) VH: QVQLVQSGAEVKKPGASVKVSCKASGYTFTDHAIHWVRQAPGQGLEWMGYISPGNGDIKYNEKFKDRVTMTADKSSSTAYMQLRSLRSDDTAVYFCKRSLLALDYWGQGTLVTVSS VL: DIQMTQSPSSLSASVGDRVTITCKASQDVGTNIAWYQQKPGKAPKVLIYSASTRHTGVPSRFSGSGSGTDFTLTISSLQPEDFATYFCQQYSSFPLTFGQGTKVEIK	Group 1	0.3	1.3	1.8	–	–	–	–	–	–	–
hSIA102 (antibody, V domains shown) VH: QVQLVQSGAEVKKPGASVKISCKASGYTFTDHAIHWVRQAPGQGLEWIGYFSPGNDDIKYNEKFKVRATLTADKSSSTAYMELRSLRSDDTAVYFCKRSYYGDWGQGTLVTVSS VL: DIQMTQSPSSLSASVGDRVTITCRASENIYSHLAWYQQKPGKAPKLLVYGATNLASGVPSRFSGSGSGTQFTLTISSLQPEDFATYYCQHFWGAPFTFGQGTKVEIK	Group 4	0.1	2.6	–	not periodate sensitive	–	–	–	–	–	–
mSIA103: mouse IgG2a anti-STn antibody, VH SEQ ID NO: 5, VL SEQ ID NO: 6; variable domains from 3F1 IgG1 antibodies (antibody, V domains shown, mouse IgG2a constant regions, variable domains from 3F1 IgG1 antibodies) VH: QVQLQQSDAELVKPGASVKISCKASGYTFTDHAIHWVKQKPEQGLDWIGYISPGNGDIKYNEKFKDKVTLTADKSSSTACMHLNSLTSEDSAVYFCKRSLLALDYWGQGTTLTVSS VL: DIVMTQSHKFMSTSVGDRVSITCKASQDVGTNIAWYQQKPGRSPKVLIYSASTRHTGVPDRFTGSGSGTDFTLTISNVQSEDLTDYFCQQYSSFPLTFGVGTKLELK	–	–	–	–	–	30.0	67.7	69.9	restricted to crypt and surface mucosa	abolished	45
